Test results taken from paper PMC12447514, “Modulation of Amyloid‑β Aggregation by Surface Proteins from Pathogens Associated with Alzheimer’s Disease” (ACS Chemical Neuroscience, 2025).

Biological target: the molecule itself
Experiment: SEC; HiLoad 16/600 Superdex 75 pg in PBS or 20 mM sodium phosphate, 200 μM EDTA pH 8; oligomeric state verified in Supporting Figure S2 (method not shown)

B1: Borrelia burgdorferi outer surface protein C (residues 11-191) (natural protein)
chain: ASTNPDESAKGPNLTEISKKITDSNAVVLAVKEVEALLSSIDELAKTIGKKIEANGLGNEADKNGSLLAGAYAISTLIKQKLDGLKGLEGLNKEIAEAKKCSEAFTKKLQDSNADLGKHNATDADSKEAILKTNGTKTKGAKELEELFKSVESLSKAAKEALSNSVKELTSPVVAESPKKP
notes: outer surface protein C of Borrelia burgdorferi sensu lato, UniProt P94245, residues 11-191; the N-terminal signal peptide was replaced by His-tagged polyubiquitin-B and a TEV protease cleavage site; also called OspC; Bb outer surface protein C; not shown: polyubiquitin-B with C-terminal His-tag (UniProt J3QS39), N-terminal, cleaved
- stoichiometry N: 2
